# Reference: patent US20240383996A1
# What was measured:
# [1] = molecular target: Human OX40 expressed on transfected Jurkat or CHO cells (human) (UniProt P43489); assay: flow cytometry, whole cell binding to human OX40-expressing Jurkat cells, Geo MFI
# [2] = molecular target: Human CTLA4 expressed on transfected CHO or Jurkat cells (human) (UniProt P16410); assay: flow cytometry, whole cell binding to human CTLA4-expressing Jurkat cells, Geo MFI
# Human CTLA4 expressed on transfected CHO or Jurkat cells (human), sequence (P16410 36-222 limits assumed): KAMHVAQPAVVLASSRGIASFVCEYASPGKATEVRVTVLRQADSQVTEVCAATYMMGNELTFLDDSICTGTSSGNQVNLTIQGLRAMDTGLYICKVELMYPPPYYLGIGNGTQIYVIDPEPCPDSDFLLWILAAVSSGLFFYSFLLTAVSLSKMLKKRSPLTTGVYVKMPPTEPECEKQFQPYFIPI
# Human OX40 expressed on transfected Jurkat or CHO cells (human), sequence (P43489 29-277 limits assumed): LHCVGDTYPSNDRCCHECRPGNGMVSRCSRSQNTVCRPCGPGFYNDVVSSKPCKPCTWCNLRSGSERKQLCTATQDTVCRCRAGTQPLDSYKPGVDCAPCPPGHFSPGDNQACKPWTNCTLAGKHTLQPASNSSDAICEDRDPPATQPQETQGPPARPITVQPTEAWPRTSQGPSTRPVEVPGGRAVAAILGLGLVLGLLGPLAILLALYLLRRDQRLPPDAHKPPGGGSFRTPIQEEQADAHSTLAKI
substance,measurement,setting,value
ATOR-1015 analog (reference anti-OX40/CTLA4 bispecific antibody synthesized in-house),EC50,[1],0.0103 µM
same,EC50,[2],0.0374 µM
